Data published in article doi:10.1101/2021.11.26.470043.

Target: ACE-2 receptor on the surface of Vero-E6 cells (African green monkey (endogenous in Vero-E6))
Assay: flow cytometry on cells

Row | Substance | percent of cells bound to RBD [%]
1 | commercially available recombinant RBD (from UniProt P0DTC2) (domain or fragment) | 78
2 | recombinant SARS-CoV-2 RBD (Pro330-Ser530) expressed in Sf9 insect cells (from UniProt P0DTC2 330-530) (domain or fragment) | 60
